Results from patent US20230086530A1 (SHANGHAI ESCUGEN BIOTECHNOLOGY, published 2023).
Like-named read-outs stand apart in the source and are kept apart here. One block for each binder: values may come before it.

Experiments:
[1] = molecular target: T1, CD47 on human platelets (human, UniProt Q08722 19-323); experiment: flow cytometry, human platelets
T1 construct: whole, on cells
Experimental: (§1) After the platelets were counted with a hemocytometer, the density of the platelets was adjusted to 1.5×10⁷/mL with PBS+1% FBS, and 100 μL of above sample was added to each well of a 96-well U-shaped plate. […] After incubating at 4° C. for 1 h, the samples were centrifuged at 1000 rpm for 3 mins and rinsed once with PBS+1% FBS. 100 μl of 1:1000 diluted goat anti-human IgG (H+L)-AlexaFluor488 (purchased from eBioscience, Cat. No. A11013) was added to each well, and incubated at 4° C. for 45 mins. The samples were centrifuged at 1000 rpm for 3 mins, rinsed twice with PBS+1% FBS, resuspended in 200 μl of PBS+1% FBS, and transferred to a flow tube for on-board detection.

[2] = molecular target: T1, CD47 on human platelets; experiment: flow cytometry, human platelets; remark: listed apart in the source
Experimental: as §1

[3] = molecular target: T2, CD47 on human erythrocytes (human, UniProt Q08722 19-323); experiment: flow cytometry, human erythrocytes
T2 construct: whole, on cells; Kept apart from m1 because the same antibodies behave differently on these cells

[4] = molecular target: T3, CD47 on cynomolgus macaque erythrocytes (cynomolgus macaque, UniProt A0A5F8AK49 19-323 (rhesus entry)); experiment: flow cytometry on cynomolgus macaque erythrocytes of 4 animals
T3 construct: whole, on cells

[5] = molecular target: T2, CD47 on human erythrocytes; experiment: flow cytometry, human erythrocytes, first individual
[6] = molecular target: T2, CD47 on human erythrocytes; experiment: flow cytometry, human erythrocytes, second individual
[7] = molecular target: T4, CD47 on cynomolgus macaque platelets (cynomolgus macaque, UniProt A0A5F8AK49 19-323 (rhesus entry)); experiment: flow cytometry, cynomolgus macaque platelets, animal 186#
T4 construct: whole, on cells

[8] = molecular target: T4, CD47 on cynomolgus macaque platelets; experiment: flow cytometry, cynomolgus macaque platelets, animal 194#
[9] = molecular target: T4, CD47 on cynomolgus macaque platelets; experiment: flow cytometry, cynomolgus macaque platelets, animal 567#
[10] = molecular target: T5, biotinylated-CD47 (ACRO Biosystems Cat. No. CD7-H82E9) (UniProt Q08722 19-139, biotinylated (site not stated)); experiment: competition ELISA; blocked: biotinylated-CD47 binding to coated SIRPα-His
T5 construct: also called CD47 recombinant protein
Experimental: After rinsing 4 times with PBST, 200 μl of PBS+1% BSA was added to each well, blocking for 1 h at room temperature, and rinsing 4 times with PBST. […] The 96-well plate was rinsed 4 times with PBST, 100 μl of Steptavidin-HRP (Invitrogen #434323) diluted 1:2500 was added to each well, and incubated at room temperature for 1 h. After rinsing the 96-well plate four times with PBST, 100 μl of TMB substrate (Cell Signaling, Cat. No. 7004) was added to each well, and after color development at room temperature for 10 mins, 50 μl of stop solution was added to stop the reaction.

[11] = molecular target: T6, Human CD47 recombinant protein (Human CD47 His Tag), ACRO Biosystems Cat. No. CD7-H5227 (human, UniProt Q08722 19-139); experiment: SPR BIAcore 8K, antibody captured by anti-human IgG Fc on CM5, huCD47 (His tag) in flow, 25 C, 1:1 model
T6 construct: bought protein; also called huCD47-His; huCD47; not shown: His tag
Experimental: The binding time of the huCD47 to the antibody was 180 s, the dissociation time was 900 s, and the reaction temperature was 25° C. The binding constant ka, the dissociation constant kd and the affinity KD were calculated by FitGlobal using BIAcore 8K Evaluation software (GE Healthcare) according to the 1:1 binding model.

[12] = molecular target: T7, human CD47 on the cell membrane surface of CD47 positive tumor cells (Raji, NUGC-4, Jurkat) (human, UniProt Q08722 19-323); experiment: FACS on Raji cells, VHH 5 µg/mL
T7 construct: whole, on cells; also called huCD47 on the cell membrane surface; cell surface CD47
Experimental: (§2) Antibodies that can bind to CD47 positive cells were screened by flow cytometry (FACS). Human Burkitt's lymphoma cells Raji (purchased from the Cell Bank of the Chinese Academy of Sciences, Cat. No. TCHu 44) were cultured in RPMI-1640 medium (purchased from Gibco, Cat. No. 11875-093) comprising 10% fetal bovine serum FBS (purchased from Gibco, Cat. No. 1009141) at 37° C. with 5% CO₂.
(§3) Raji cells were collected by centrifugation at 800 rpm for 3 mins, rinsed once with PBS+1% FBS and resuspended for counting. In a 96-well plate, 1×10⁵ Raji cells were added to each well, and then the VHH (purified) samples were added in a gradient dilution. The final concentrations of VHH were 5, 0.5, and 0.05 μg/mL, respectively. After mixing, it was mixed with Raji cells and incubateed at room temperature for 1 h. Raji cells were collected by centrifugation at 1400 rpm for 3 mins. […] The cells were rinsed twice with PBS+1% FBS and analyzed on an iQuePlus flow cytometer.
(§4) The mean fluorescence intensity (MFI) of the control well with only fluorescent secondary antibody was used as the mean fluorescence intensity of the background value, and the multiple of the mean fluorescence intensity of the sample and the mean fluorescence intensity of the background value was used to evaluate the binding strength of the VHH single-domain antibody to Raji cells.

[13] = molecular target: T7, human CD47 on the cell membrane surface …; experiment: FACS on Raji cells, VHH 0.5 µg/mL
Experimental: as §2, §3, §4

[14] = molecular target: T7, human CD47 on the cell membrane surface …; experiment: FACS on Raji cells, VHH 0.05 µg/mL
Experimental: as §2, §3, §4

[15] = molecular target: T6, Human CD47 recombinant protein (Human …); experiment: competition ELISA: huCD47-His coated, VHH against 5 nM SIRPα-mIgG1
Experimental: 100 μl of 1 μg/mL huCD47-His antigen (purchased from ACRO Biosystems, Cat. No. CD7-H5227) was add to a 96-well plate, and coated overnight at 4° C. The plate was washed three times with 250 μl of PBST, and added 100 μl of purified VHH to the final concentrations of 500, 50, 5, and 0.5 nM, respectively, and incubated at room temperature for 1 h. […] After washing the plate three times with PBST, goat anti-mouse HRP-conjugate (purchased from Invitrogen, Cat. No. 31430) diluted 1:5000 was added and incubated for 45 mins. After washing the plate three times with 250 μl of PBST, TMB (purchased from Cell Signaling Technology, Cat. No. 7004) as a chromogenic substrate was added and developed color for 10 mins. After quenching the reaction with 0.5M HCl, data was read on a microplate reader.

EC50 (read off the curve) [1]: ~0.02 µg/mL
EC50 (read off the curve) [2]: ~0.8 µg/mL
EC50 (read off the curve) [3]: ~2 nM
EC50 [4]: 0.01 to 0.03 µg/mL
EC50 (read off the curve) [5]: ~0.03 µg/mL
EC50 (read off the curve) [6]: ~0.02 µg/mL
EC50 (read off the curve) [7]: ~0.3 µg/mL
EC50 (read off the curve) [8]: ~0.3 µg/mL
EC50 (read off the curve) [9]: ~0.5 µg/mL
IC50 (read off the curve) [10]: ~0.3 µg/mL
Kd [11]: 7.68 nM
koff [11]: 0.055 s⁻¹
kon [11]: 7.16e+06 M⁻¹ s⁻¹
B1: control antibody 5F9 (antibody, human IgG4 S228P, kappa)
heavy: not shown
light: DVLMTQTPLSLPVSLGDQASISCRSSQSIVYSNGNTYLGWYLQKPGQSPKLLIYKVSNRFSGVPDRFSGSGSGTDFTLKISRVEAEDLGVYHCFQGSHVPYTFGGGTKVEIKRTVAAPSVFIFPPSDEQLKSGTASVVCLLNNFYPREAKVQWKVDNALQSGNSQESVTEQDSKDSTYSLSSTLTLSKADYEKHKVYACEVTHQGLSSPVTKSFNRGEC
notes: also called 5F9 antibody

Mean fluorescence intensity (multiple) [12]: 152 fold
Mean fluorescence intensity (multiple) [13]: 61.4 fold
Mean fluorescence intensity (multiple) [14]: 27.2 fold
IC50 [15]: 15 nM
B2: DX-36699 VHH single-domain antibody (VHH)
VHH: DVQLQASGGGSVEAGGSLTLSCLASGFYNMRWYRQAPGNERELVARIGIGGSTDYADSVKGRFTISRGNAKNMVHLQMNSLKPEDTAVYYCWGGGYWGQGTQVTVSS
notes: purified from E. coli (NiNTA)

Mean fluorescence intensity (multiple) [12]: 204 fold
Mean fluorescence intensity (multiple) [13]: 142 fold
Mean fluorescence intensity (multiple) [14]: 43.5 fold
IC50 [15]: 616 nM
B3: DX-36698 VHH single-domain antibody (VHH)
VHH: QVQLVESGGGLVQAGGSLRLSCAASVRTFSIYAMGWFRQAPGKDREFVGAISGRGYTTYYVDSVKGRFTISRDNAKNTVYLQMNSLKPEDTAVYYCAADLYGSRRYADRESYDYWGQGTQVTVSS
notes: purified from E. coli (NiNTA)
